Test results from publication PMC2570342 (Cell, 2008).

Target: actin filaments (F-actin) (UniProt P68135 1-377)
Assay: co-sedimentation

IC50: 74 nM
B1: Coronin 1B (recombinant) (natural protein)
chain: MSFRKVVRQSKFRHVFGQPVKNDQCYEDIRVSRVTWDSTFCAVNPKFLAVIVEASGGGAFLVLPLSKTGRIDKAYPTVCGHTGPVLDIDWCPHNDEVIASGSEDCTVMVWQIPENGLTSPLTEPVVVLEGHTKRVGIIAWHPTARNVLLSAGCDNVVLIWNVGTAEELYRLDSLHPDLIYNVSWNHNGSLFCSACKDKSVRIIDPRRGTLVAEREKAHEGARPMRAIFLADGKVFTTGFSRMSERQLALWDPENLEEPMALQELDSSNGALLPFYDPDTSVVYVCGKGDSSIRYFEITEEPPYIHFLNTFTSKEPQRGMGSMPKRGLEVSKCEIARFYKLHERKCEPIVMTVPRKSDLFQDDLYPDTAGPEAALEAEEWVSGRDADPILISLREAYVPSKQRDLKISRRNVLSDSRPAMAPGSSHLGAPASTTTAADATPSGSLARAGEAGKLEEVMQELRALRALVKEQGDRICRLEEQLGRMENGDA
